The target in the assay is T1, CD33 on cord blood CD34+ cells (human, UniProt P20138 18-364).
T1 construct: whole, on cells; also called CD33 antigen
Description: flow cytometry on CD33-expressing cord blood CD34+ cells, detected with FITC anti-Myc antibody. As to the method:
The binding of the anti-CD33-ULBP1 chimera with CD33 antigen-expressing cord blood CD34+ cells or NKG2D-expressing primary NK cells was tested using flow cytometry. Briefly, primary NK cells were purified from peripheral blood of donors. CD34+ cells were purified from cord blood of donors. Purified cells were incubated with the elute from the mock, chimera 1 or chimera 2 proteins purified from the cell supernatant. The cells were also incubated with FITC-conjugated anti-Myc antibody and analyzed using a flow cytometer.
For orientation: A flow cytometer gives signals particle by particle.

T1 sequence (P20138 18-364): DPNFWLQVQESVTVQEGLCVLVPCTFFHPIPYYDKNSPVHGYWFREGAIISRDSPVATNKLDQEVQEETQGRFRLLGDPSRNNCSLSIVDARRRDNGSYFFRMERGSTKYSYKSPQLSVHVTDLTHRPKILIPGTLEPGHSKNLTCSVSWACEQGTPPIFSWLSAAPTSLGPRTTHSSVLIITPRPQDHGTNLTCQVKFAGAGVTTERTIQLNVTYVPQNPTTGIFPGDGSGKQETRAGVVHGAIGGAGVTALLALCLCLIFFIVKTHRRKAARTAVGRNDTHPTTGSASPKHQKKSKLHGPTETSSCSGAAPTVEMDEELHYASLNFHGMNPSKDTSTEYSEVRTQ

B1: anti-CD33-ULBP1 chimera 1 (CD33-ULBP1-1) (other)
chain: EIVLTQSPGSLAVSPGERVTMSCKSSQSVFFSSSQKNYLAWYQQIPGQSPRLLIYWASTRESGVPDRFTGSGSGTDFTLTISSVQPEDLAIYYCHQYLSSRTFGQGTKLEIKRGSTSGSGKPGSGEGSTKGQVQLQQPGAEVVKPGASVKMSCKASGYTFTSYYIHWIKQTPGQGLEWVGVIYPGNDDISYNQKFQGKATLTADKSSTTAYMQLSSLTSEDSAVYYCAREVRLRYFDVWGQGTTVTVSSSSSAGGGGSGGGGSGGGGSWVDTHCLCYDFIITPKSRPEPQWCEVQGLVDERPFLHYDCVNHKAKAFASLGKKVNVTKTWEEQTETLRDVVDFLKGQLLDIQVENLIPIEPLTLQARMSCEHEAHGHGRGSWQFLFNGQKFLLFDSNNRKWTALHPGAKKMTEKWEKNRDVTMFFQKISLGDCKMWLEEFLMYWEQMLDPTKPPSLAPGEQKLISEEDLHHHHHH
notes: also called αCD33-ULBP1 chimera 1
As for B1, the binding result is on record as “binds”.

B2: anti-CD33-ULBP1 chimera 2 (CD33-ULBP1-2, with proline) (other)
chain: EIVLTQSPGSLAVSPGERVTMSCKSSQSVFFSSSQKNYLAWYQQIPGQSPRLLIYWASTRESGVPDRFTGSGSGTDFTLTISSVQPEDLAIYYCHQYLSSRTFGQGTKLEIKRGSTSGSGKPGSGEGSTKGQVQLQQPGAEVVKPGASVKMSCKASGYTFTSYYIHWIKQTPGQGLEWVGVIYPGNDDISYNQKFQGKATLTADKSSTTAYMQLSSLTSEDSAVYYCAREVRLRYFDVWGQGTTVTVSSSSSAGGGGSGGGGSGGGGSPWVDTHCLCYDFIITPKSRPEPQWCEVQGLVDERPFLHYDCVNHKAKAFASLGKKVNVTKTWEEQTETLRDVVDFLKGQLLDIQVENLIPIEPLTLQARMSCEHEAHGHGRGSWQFLFNGQKFLLFDSNNRKWTALHPGAKKMTEKWEKNRDVTMFFQKISLGDCKMWLEEFLMYWEQMLDPTKPPSLAPGEQKLISEEDLHHHHHH
notes: also called αCD33-ULBP1 chimera 2
For B2, the binding result is listed as “binds”.

Values taken from patent US20210393685A1 (TRUSTEES OF COLUMBIA UNIVERSITY IN THE CITY OF NEW YORK, published 2021).
